In patent US20180155451A1 (published 2018):

T1: FcgRIIb (human, UniProt P31994 43-217)
T1 construct: extracellular domain; also called FcγRIIb; not shown: His tag attached to the C terminus
T1 sequence (looked up): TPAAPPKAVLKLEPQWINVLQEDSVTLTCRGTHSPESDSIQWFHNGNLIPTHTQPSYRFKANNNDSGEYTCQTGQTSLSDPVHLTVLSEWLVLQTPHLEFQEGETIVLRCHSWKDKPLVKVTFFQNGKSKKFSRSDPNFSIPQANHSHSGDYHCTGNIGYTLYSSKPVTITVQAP

T2: FcgRIIa H (human, UniProt P12318 34-217)
T2 construct: extracellular domain; also called FcγRIIa H; FcγRIIa type H; not shown: His tag attached to the C terminus
T2 sequence (looked up): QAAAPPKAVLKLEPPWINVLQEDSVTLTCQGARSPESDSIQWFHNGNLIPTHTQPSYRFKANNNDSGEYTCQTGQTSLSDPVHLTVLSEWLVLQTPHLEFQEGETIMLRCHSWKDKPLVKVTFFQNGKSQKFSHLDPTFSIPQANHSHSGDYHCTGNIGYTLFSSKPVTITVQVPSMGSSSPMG

T3: FcgRIIa R (human, UniProt P12318 34-217)
T3 construct: extracellular domain; also called FcγRIIa R; FcγRIIa type R; not shown: His tag attached to the C terminus
T3 sequence (looked up): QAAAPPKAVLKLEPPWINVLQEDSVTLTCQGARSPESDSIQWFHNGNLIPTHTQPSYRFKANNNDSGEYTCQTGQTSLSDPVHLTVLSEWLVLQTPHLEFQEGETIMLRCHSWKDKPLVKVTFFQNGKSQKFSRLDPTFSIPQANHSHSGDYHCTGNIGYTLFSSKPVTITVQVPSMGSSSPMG


Assays:
Assay in all cases: SPR (Biacore); KD of H240-Kn061/H240-Hl071/L73-k0 divided by KD of the variant
FcgRIIb = target: T1, FcgRIIb
Procedure: (§1) The antibodies were assessed for the binding to each FcgR. […] The resultant value was defined as relative KD, and used as an assessment indicator.
(§2) Analysis of interaction between obj ective antibody and the FcγR was carried out using Biacore T100 (GE Healthcare), Biacore T200, Biacore A100, and Biacore 4000. HBS-EP+ (GE Healthcare) was used as the running buffer, and the measurement temperature was set to 25° C. Chips produced by immobilizing the antigen peptide by the amine coupling method to a Series S sensor Chip CM5 (GE Healthcare), chips produced by allowing preliminarily biotinylated antigen peptides to interact with and immobilize onto a Series S Sensor Chip SA (certified) (GE Healthcare), chips produced by immobilizing Protein L (ACTIGEN, BioVision) to Series S Sencor Chip CM5 (GE Healthcare), or chips produced by immobilizing Protein A/G (Thermo Scientific) to Series S Sencor Chip CM5 (GE Healthcare) were used. Antibodies of interest were captured onto these chips, and allowed to interact to each FcγR diluted with running buffer.

FcgRIIIa F = target: T4, FcgRIIIa F (human, UniProt P08637 17-208)
T4 construct: extracellular domain; also called FcγRIIIa F; 3aF; not shown: His tag attached to the C terminus
Procedure: as §1, §2

FcgRIIa H = target: T2, FcgRIIa H
Procedure: as §1, §2

FcgRIIIa V = target: T5, FcgRIIIa V (human, UniProt P08637 17-208)
T5 construct: extracellular domain; also called FcγRIIIa V; not shown: His tag attached to the C terminus
Procedure: as §1, §2

FcgRIIa R = target: T3, FcgRIIa R
Procedure: as §1, §2

T4 sequence (P08637 17-208): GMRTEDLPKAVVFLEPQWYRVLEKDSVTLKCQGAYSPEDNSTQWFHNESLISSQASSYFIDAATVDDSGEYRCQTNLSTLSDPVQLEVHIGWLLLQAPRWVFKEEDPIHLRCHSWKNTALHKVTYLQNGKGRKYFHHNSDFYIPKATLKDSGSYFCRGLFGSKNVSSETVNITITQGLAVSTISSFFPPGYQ
T5 sequence (P08637 17-208 F176V limits assumed): as the sequence (P08637 17-208) above, with F160V counted along it

Row | Relative KD (FcgRIIb) | Relative KD (FcgRIIIa F) | Relative KD (FcgRIIa H) | Relative KD (FcgRIIIa V) | Relative KD (FcgRIIa R) | Binder
1 | 1.6 | 1.3 | 1.6 | 1.5 | 1.6 | H240-Kn061 (A231V)/H240-Hl071/L73-k0 (antibody, human IgG1, kappa) heavy 1: QDQLVQSGAEVKKPGASVKVSCKASGFNIKDTYIQWVRQAPGQGLEWMGRIDPLRKQTKYREKFEGRVTITADTSTNTAYMELSSLRSEDTAVYYCVRSGREFDYWGQGTLVTVSSASTKGPSVFPLAPSSKSTSGGTAALGCLVKDYFPEPVTVSWNSGALTSGVHTFPAVLQSSGLYSLSSVVTVPSSSLGTQTYICNVNHKPSNTKVDKKVEPKSCDKTHTCPPCPVPEYYWGPSVFLFPPKPKDTLMISRTPEVTCVVVDVSDEDPEVKFNWYVDGVEVHNAKTKPREEQYNATYRVVSVLTVLHQDWLNGKEYKCKVSNKALPAPIEKTISKAKGQPREPQVCTLPPSRDELTKNQVSLWCLVKGFYPSDIAVEWESNGQPENNYKTTPPVLDSDGSFFLYSKLTVDKSRWQQGNVFSCSVMHEALHNHYTQKSLSLSP heavy 2: QDQLVQSGAEVKKPGASVKVSCKASGFNIKDTYIQWVRQAPGQGLEWMGRIDPLRKQTKYREKFEGRVTITADTSTNTAYMELSSLRSEDTAVYYCVRSGREFDYWGQGTLVTVSSASTKGPSVFPLAPSSKSTSGGTAALGCLVKDYFPEPVTVSWNSGALTSGVHTFPAVLQSSGLYSLSSVVTVPSSSLGTQTYICNVNHKPSNTKVDKKVEPKSCDKTHTCPPCPAPELLGGPSVFLFPPKPKDTLMISRTPEVTCVVVDVSHEDPEVKFNWYVDGVEVHNAKTKPREEQYNSTYRVVSVLTVLHQDWLNGKEYKCKVSNDALPMPIEETISKAKGQPREPQVYTLPPSRCELTKNQVSLSCAVKGFYPSDIAVEWESNGQPENNYKTTPPVLDSDGSFFLVSKLTVDKSRWQQGNVFSCSVMHEALHNHYTQKSLSLSP light: DIQMTQSPSSLSASVGDRVTITCRASQDIHKYIAWYQQKPGQAPRLLIQYTSTLQPGVPSRFSGSGSGTDYTFTISSLQPEDIATYYCLQYEQLRTFGGGTKVEIKRTVAAPSVFIFPPSDEQLKSGTASVVCLLNNFYPREAKVQWKVDNALQSGNSQESVTEQDSKDSTYSLSSTLTLSKADYEKHKVYACEVTHQGLSSPVTKSFNRGEC
2 | 3.1 | 3 | 2.1 | 3.4 | 4.4 | H240-Kn061 (S239I)/H240-Hl071/L73-k0 (antibody, human IgG1, kappa) heavy 1: QDQLVQSGAEVKKPGASVKVSCKASGFNIKDTYIQWVRQAPGQGLEWMGRIDPLRKQTKYREKFEGRVTITADTSTNTAYMELSSLRSEDTAVYYCVRSGREFDYWGQGTLVTVSSASTKGPSVFPLAPSSKSTSGGTAALGCLVKDYFPEPVTVSWNSGALTSGVHTFPAVLQSSGLYSLSSVVTVPSSSLGTQTYICNVNHKPSNTKVDKKVEPKSCDKTHTCPPCPAPEYYWGPIVFLFPPKPKDTLMISRTPEVTCVVVDVSDEDPEVKFNWYVDGVEVHNAKTKPREEQYNATYRVVSVLTVLHQDWLNGKEYKCKVSNKALPAPIEKTISKAKGQPREPQVCTLPPSRDELTKNQVSLWCLVKGFYPSDIAVEWESNGQPENNYKTTPPVLDSDGSFFLYSKLTVDKSRWQQGNVFSCSVMHEALHNHYTQKSLSLSP heavy 2: QDQLVQSGAEVKKPGASVKVSCKASGFNIKDTYIQWVRQAPGQGLEWMGRIDPLRKQTKYREKFEGRVTITADTSTNTAYMELSSLRSEDTAVYYCVRSGREFDYWGQGTLVTVSSASTKGPSVFPLAPSSKSTSGGTAALGCLVKDYFPEPVTVSWNSGALTSGVHTFPAVLQSSGLYSLSSVVTVPSSSLGTQTYICNVNHKPSNTKVDKKVEPKSCDKTHTCPPCPAPELLGGPSVFLFPPKPKDTLMISRTPEVTCVVVDVSHEDPEVKFNWYVDGVEVHNAKTKPREEQYNSTYRVVSVLTVLHQDWLNGKEYKCKVSNDALPMPIEETISKAKGQPREPQVYTLPPSRCELTKNQVSLSCAVKGFYPSDIAVEWESNGQPENNYKTTPPVLDSDGSFFLVSKLTVDKSRWQQGNVFSCSVMHEALHNHYTQKSLSLSP light: DIQMTQSPSSLSASVGDRVTITCRASQDIHKYIAWYQQKPGQAPRLLIQYTSTLQPGVPSRFSGSGSGTDYTFTISSLQPEDIATYYCLQYEQLRTFGGGTKVEIKRTVAAPSVFIFPPSDEQLKSGTASVVCLLNNFYPREAKVQWKVDNALQSGNSQESVTEQDSKDSTYSLSSTLTLSKADYEKHKVYACEVTHQGLSSPVTKSFNRGEC
3 | 3.4 | 3.4 | 2.4 | 3.7 | 4.8 | H240-Kn061 (S239L)/H240-Hl071/L73-k0 (antibody, human IgG1, kappa) heavy 1: QDQLVQSGAEVKKPGASVKVSCKASGFNIKDTYIQWVRQAPGQGLEWMGRIDPLRKQTKYREKFEGRVTITADTSTNTAYMELSSLRSEDTAVYYCVRSGREFDYWGQGTLVTVSSASTKGPSVFPLAPSSKSTSGGTAALGCLVKDYFPEPVTVSWNSGALTSGVHTFPAVLQSSGLYSLSSVVTVPSSSLGTQTYICNVNHKPSNTKVDKKVEPKSCDKTHTCPPCPAPEYYWGPLVFLFPPKPKDTLMISRTPEVTCVVVDVSDEDPEVKFNWYVDGVEVHNAKTKPREEQYNATYRVVSVLTVLHQDWLNGKEYKCKVSNKALPAPIEKTISKAKGQPREPQVCTLPPSRDELTKNQVSLWCLVKGFYPSDIAVEWESNGQPENNYKTTPPVLDSDGSFFLYSKLTVDKSRWQQGNVFSCSVMHEALHNHYTQKSLSLSP heavy 2: QDQLVQSGAEVKKPGASVKVSCKASGFNIKDTYIQWVRQAPGQGLEWMGRIDPLRKQTKYREKFEGRVTITADTSTNTAYMELSSLRSEDTAVYYCVRSGREFDYWGQGTLVTVSSASTKGPSVFPLAPSSKSTSGGTAALGCLVKDYFPEPVTVSWNSGALTSGVHTFPAVLQSSGLYSLSSVVTVPSSSLGTQTYICNVNHKPSNTKVDKKVEPKSCDKTHTCPPCPAPELLGGPSVFLFPPKPKDTLMISRTPEVTCVVVDVSHEDPEVKFNWYVDGVEVHNAKTKPREEQYNSTYRVVSVLTVLHQDWLNGKEYKCKVSNDALPMPIEETISKAKGQPREPQVYTLPPSRCELTKNQVSLSCAVKGFYPSDIAVEWESNGQPENNYKTTPPVLDSDGSFFLVSKLTVDKSRWQQGNVFSCSVMHEALHNHYTQKSLSLSP light: DIQMTQSPSSLSASVGDRVTITCRASQDIHKYIAWYQQKPGQAPRLLIQYTSTLQPGVPSRFSGSGSGTDYTFTISSLQPEDIATYYCLQYEQLRTFGGGTKVEIKRTVAAPSVFIFPPSDEQLKSGTASVVCLLNNFYPREAKVQWKVDNALQSGNSQESVTEQDSKDSTYSLSSTLTLSKADYEKHKVYACEVTHQGLSSPVTKSFNRGEC
4 | 2.2 | 2.2 | 2 | 2.8 | 3.2 | H240-Kn061 (S239M)/H240-Hl071/L73-k0 (antibody, human IgG1, kappa) heavy 1: QDQLVQSGAEVKKPGASVKVSCKASGFNIKDTYIQWVRQAPGQGLEWMGRIDPLRKQTKYREKFEGRVTITADTSTNTAYMELSSLRSEDTAVYYCVRSGREFDYWGQGTLVTVSSASTKGPSVFPLAPSSKSTSGGTAALGCLVKDYFPEPVTVSWNSGALTSGVHTFPAVLQSSGLYSLSSVVTVPSSSLGTQTYICNVNHKPSNTKVDKKVEPKSCDKTHTCPPCPAPEYYWGPMVFLFPPKPKDTLMISRTPEVTCVVVDVSDEDPEVKFNWYVDGVEVHNAKTKPREEQYNATYRVVSVLTVLHQDWLNGKEYKCKVSNKALPAPIEKTISKAKGQPREPQVCTLPPSRDELTKNQVSLWCLVKGFYPSDIAVEWESNGQPENNYKTTPPVLDSDGSFFLYSKLTVDKSRWQQGNVFSCSVMHEALHNHYTQKSLSLSP heavy 2: QDQLVQSGAEVKKPGASVKVSCKASGFNIKDTYIQWVRQAPGQGLEWMGRIDPLRKQTKYREKFEGRVTITADTSTNTAYMELSSLRSEDTAVYYCVRSGREFDYWGQGTLVTVSSASTKGPSVFPLAPSSKSTSGGTAALGCLVKDYFPEPVTVSWNSGALTSGVHTFPAVLQSSGLYSLSSVVTVPSSSLGTQTYICNVNHKPSNTKVDKKVEPKSCDKTHTCPPCPAPELLGGPSVFLFPPKPKDTLMISRTPEVTCVVVDVSHEDPEVKFNWYVDGVEVHNAKTKPREEQYNSTYRVVSVLTVLHQDWLNGKEYKCKVSNDALPMPIEETISKAKGQPREPQVYTLPPSRCELTKNQVSLSCAVKGFYPSDIAVEWESNGQPENNYKTTPPVLDSDGSFFLVSKLTVDKSRWQQGNVFSCSVMHEALHNHYTQKSLSLSP light: DIQMTQSPSSLSASVGDRVTITCRASQDIHKYIAWYQQKPGQAPRLLIQYTSTLQPGVPSRFSGSGSGTDYTFTISSLQPEDIATYYCLQYEQLRTFGGGTKVEIKRTVAAPSVFIFPPSDEQLKSGTASVVCLLNNFYPREAKVQWKVDNALQSGNSQESVTEQDSKDSTYSLSSTLTLSKADYEKHKVYACEVTHQGLSSPVTKSFNRGEC
